In patent US20220233706A1 (ANTIKOR BIOPHARMA, published 2022):
Values belong to the molecule of their own block, whether it stands above or below them.

Key:
HER2-Fc = molecular target: T1, HER2-Fc (UniProt P04626 23-652); test: ELISA, plates coated with 10 µg/ml HER2-Fc, anti-myc IgG detection
T1 construct: Coated at 10 µg/ml on ELISA plates; also called HER2 antigen; immobilised HER2 target antigen (ELISA); not shown: Fc part

[1] = molecular target: T2, HER2 immobilised on a Biacore chip (UniProt P04626 23-652, limits assumed); test: Biacore SPR, HER2 amine-coupled to the chip
T2 construct: also called immobilised HER2 target antigen (Biacore SPR); HER2 chip

[2] = molecular target: T2, HER2 immobilised on a Biacore chip; test: Biacore SPR, HER2 amine-coupled to the chip; Acetate conjugate, DAR 16
Protocol: (§1) A standard amine-coupling method was used to prepare all Biacore surfaces (CM5 or CM3), as follows. Flow cells were activated individually by injecting a freshly mixed solution of 0.2M EDC in 0.05 M NHS at 30 μl/min. […] Excess NHS ester was deactivated using a 1 M ethanolamine solution. […] The dissociation time was extended to 3600 s for the highest concentration. Surfaces were regenerated with 45 s injection of MgCl₂ […].

[3] = molecular target: T2, HER2 immobilised on a Biacore chip; test: Biacore SPR, HER2 amine-coupled to the chip; MMAE-PAB-Cit-Val-dPEG9 conjugate, DAR 8.6
Protocol: as §1

[4] = molecular target: T2, HER2 immobilised on a Biacore chip; test: Biacore SPR, HER2 amine-coupled to the chip; Auristatin-F-C5 conjugate, DAR 11.9
Protocol: as §1

[5] = molecular target: T2, HER2 immobilised on a Biacore chip; test: Biacore SPR, HER2 amine-coupled to the chip; MMAF-C5 conjugate, DAR 5.2
Protocol: as §1

[6] = molecular target: T2, HER2 immobilised on a Biacore chip; test: Biacore SPR, HER2 amine-coupled to the chip; MMAF-C5 conjugate, DAR 7.1
Protocol: as §1

[7] = molecular target: T2, HER2 immobilised on a Biacore chip; test: Biacore SPR, HER2 amine-coupled to the chip; Auristatin-F-C5 conjugate, DAR 3.3
Protocol: as §1

[8] = molecular target: T2, HER2 immobilised on a Biacore chip; test: Biacore SPR, HER2 amine-coupled to the chip; DM1-dPEG12 conjugate, DAR 7
Protocol: as §1

Molecule: C6.5 scFv, non-SPDP modified but reduced control
- Kd (HER2-Fc): 42 nM

Molecule: C6.5 scFv-SPDP conjugate, linker to antibody ratio 5.4, reduced with TCEP
- Kd (HER2-Fc): 24.9 nM

B1: scFv (TCT1067)-Acetate DAR 16 (scFv)
scFv: SGSGGSGQVQLVQSGAEVKKPGESLKISCKGSGYSFTSYWIAWVRQMPGKGLEYMGLIYPGDSDTKYSPSFQGQVTISVDKSVSTAYLQWSSLKPSDSAVYFCARHDVGYCTDRTCAAWPEWLGVWGQGTLVTVSSGGGGSGGGGSGGGGSQSVLTQPPSVSAAPGQKVTISCSGSSSNIGNNYVSWYQQLPGTAPKLLIYGHTNRPAGVPDRFSGSKSGTSASLAISGFRSEDEADYYCASWDYTLSGWVFGGGTKLTVLMASMTGGQQMG
modifications: acetyl groups (from Acetate-NHS) on lysines, N-terminal amine and further residues, 16 additions by LC-MS
notes: also called TCT1067-acetate conjugate 2
- koff [1]: 7.64e-05 s⁻¹
- kon [1]: 3.63e+06 M⁻¹ s⁻¹
- Kd [2]: 0.021 nM

B4: scFv (TCT1067)-Auristatin-F-C5 DAR 11.9 (scFv)
scFv: B1 scFv
modifications: Auristatin F-C5 on lysine residues; DAR 13.4 by AAA, 10.4 by MS, average 11.9
notes: also called TCT1067-AF-C5 ADC 3
- koff [1]: 1.76e-05 s⁻¹
- kon [1]: 21700 M⁻¹ s⁻¹
- Kd [4]: 0.81 nM

B7: scFv (TCT1067)-Auristatin-F-C5 DAR 3.3 (scFv)
scFv: B1 scFv
modifications: Auristatin F-C5 on lysine residues; DAR 3.64 by AAA, 2.9 by MS, average 3.3
notes: also called TCT1067-AF-C5 ADC 1
- koff [1]: 1.82e-05 s⁻¹
- kon [1]: 556000 M⁻¹ s⁻¹
- Kd [7]: 0.0328 nM

B8: scFv (TCT1067)-DM1-dPEG12 DAR 7 (scFv)
scFv: B1 scFv
modifications: Maytansine DM1-dPEG12 on lysine residues, 6-8 additions, average DAR 7 by LC-MS
notes: also called TCT1067-Maytansine-PEG(12) DM1 ADC 1; compound 124
- koff [1]: 2.7e-05 s⁻¹
- kon [1]: 19500 M⁻¹ s⁻¹
- Kd [8]: 1.39 nM

The next lines start with the values.

- Kd [1]: 0.302 nM
- koff [1]: 7.13e-05 s⁻¹
- kon [1]: 236000 M⁻¹ s⁻¹
B2: scFv (TCT1067)-P5-C5 DAR 10.9 (scFv)
scFv: B1 scFv
modifications: P5-C5 on lysine residues; DAR 10.4 by AAA, 11.7 by MS, overall average 10.9
notes: also called TCT1067-P5C5 ADC 1; compound 71

- koff [1]: 2.23e-05 s⁻¹
- kon [1]: 22100 M⁻¹ s⁻¹
- Kd [3]: 1 nM
B3: scFv (TCT1067)-MMAE-PAB-Cit-Val-dPEG9 conjugate, DAR 8.6 (scFv)
scFv: B1 scFv
modifications: MMAE-PAB-Cit-Val-dPEG9 (from compound 86) on lysine residues; DAR 9.6 by AAA, 7.5 by LC-MS, average 8.6
notes: also called TCT1067-MMAE ADC1

- Kd [5]: 0.0196 nM
- koff [5]: 3.4e-05 s⁻¹
- kon [5]: 1.8e+06 M⁻¹ s⁻¹
B5: scFv (TCT1067)-MMAF-C5 ADC 1 (DAR 5.2) (scFv)
scFv: B1 scFv
modifications: MMAF-C5 on lysine residues; DAR 6.4 by AAA, 4.0 by MS, average 5.2
notes: also called scFv (TCT1067)-MMAF-C5 DAR 5.2; scFv (TCT1067)-MMAF-C5, DAR 6.4

- Kd [6]: 0.0038 nM
- koff [6]: 1.7e-05 s⁻¹
- kon [6]: 4.6e+06 M⁻¹ s⁻¹
B6: scFv (TCT1067)-MMAF-C5 ADC 2 (DAR 7.1) (scFv)
scFv: B1 scFv
modifications: MMAF-C5 on lysine residues; DAR 8.6 by AAA, 5.5 by MS, average 7.1
notes: also called scFv (TCT1067)-MMAF DAR 8.7
